# Data from patent US20180371091A1 (JOUNCE THERAPEUTICS, published 2018).
# Numbering of substitutions follows the chain as printed.
# T1: human ICOS-hFc (homodimeric, bivalent) (human, UniProt Q9Y6W8 21-141)
# T1 construct: also called hICOS-Fc; hICOS-hFc; not shown: human IgG1 Fc (IgG1 backbone)
# T1 sequence: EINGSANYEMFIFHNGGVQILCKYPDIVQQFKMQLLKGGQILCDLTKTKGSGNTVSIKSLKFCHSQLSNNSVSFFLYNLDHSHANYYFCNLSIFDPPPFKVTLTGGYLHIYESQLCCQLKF
# T2: cynomolgus ICOS-Fc (homodimeric, bivalent) (cynomolgus monkey, UniProt Q9Y6W8 21-140 (human entry))
# T2 construct: also called cynoICOS-Fc; cyno ICOS-Fc; not shown: human IgG1 Fc (IgG1 backbone)
# T2 chain: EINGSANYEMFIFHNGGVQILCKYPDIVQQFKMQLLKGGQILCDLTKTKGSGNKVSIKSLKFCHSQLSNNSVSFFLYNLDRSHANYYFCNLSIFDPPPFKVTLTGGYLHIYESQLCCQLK
# T3: monovalent, heterodimeric human ICOS-Fc (human)
# T3 construct: Make-up of the heterodimer is not described; also called Monomeric hICOS; monomeric form of human ICOS; not shown: The human IgG1 Fc fused to ICOS, and the partner Fc chain of the heterodimer
# T3 chain: T1 sequence
# T4: mouse ICOS-hFc (homodimeric, bivalent) (mouse; human, UniProt Q9WVS0 21-142)
# T4 construct: also called mICOS-hFc; mouse ICOS-Fc; not shown: human IgG1 Fc (IgG1 backbone)
# T4 sequence: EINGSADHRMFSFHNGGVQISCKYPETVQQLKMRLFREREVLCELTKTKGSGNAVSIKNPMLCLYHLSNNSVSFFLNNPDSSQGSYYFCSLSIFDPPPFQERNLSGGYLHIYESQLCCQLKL
# T5: mouse ICOS (full length, on cells) (mouse, UniProt Q9WVS0 21-200)
# T5 construct: also called CHO-mICOS; mouse ICOS+ CHO cells
# T5 sequence: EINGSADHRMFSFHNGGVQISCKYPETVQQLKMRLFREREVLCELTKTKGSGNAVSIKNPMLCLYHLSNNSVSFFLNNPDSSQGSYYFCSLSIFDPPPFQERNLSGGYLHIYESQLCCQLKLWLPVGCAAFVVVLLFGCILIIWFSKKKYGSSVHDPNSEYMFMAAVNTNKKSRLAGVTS
# T6: mouse CD28 Fc fusion (dimeric) (mouse, UniProt P31041 20-150)
# T6 construct: not shown: Fc part not described
# T6 sequence (looked up): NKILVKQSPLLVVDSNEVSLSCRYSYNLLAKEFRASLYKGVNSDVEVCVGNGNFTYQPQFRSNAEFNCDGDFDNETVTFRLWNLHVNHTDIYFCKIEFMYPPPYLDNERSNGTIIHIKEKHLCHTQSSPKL
# T7: mouse BTLA Fc fusion (dimeric) (mouse, UniProt Q7TSA3 30-183)
# T7 construct: not shown: Fc part not described
# T7 sequence (looked up): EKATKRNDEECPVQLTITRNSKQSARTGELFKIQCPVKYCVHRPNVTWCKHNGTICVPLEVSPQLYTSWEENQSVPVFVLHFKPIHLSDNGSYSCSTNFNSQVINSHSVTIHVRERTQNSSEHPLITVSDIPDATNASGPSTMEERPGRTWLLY
# T8: mouse PD-1 Fc fusion (dimeric) (mouse, UniProt Q02242 25-167)
# T8 construct: not shown: Fc part not described
# T8 sequence (looked up): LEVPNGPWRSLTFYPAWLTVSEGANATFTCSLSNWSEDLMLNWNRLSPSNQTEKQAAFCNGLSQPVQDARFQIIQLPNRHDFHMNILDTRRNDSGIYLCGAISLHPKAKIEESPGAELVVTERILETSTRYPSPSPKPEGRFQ
# T9: human CTLA-4 Fc fusion (dimeric) (human, UniProt P16410 37-162)
# T9 construct: not shown: Fc part not described
# T9 sequence (looked up): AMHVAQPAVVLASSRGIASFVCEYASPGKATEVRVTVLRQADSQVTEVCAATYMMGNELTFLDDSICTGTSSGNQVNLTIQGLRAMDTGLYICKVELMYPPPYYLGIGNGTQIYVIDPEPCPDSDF
# T10: human BTLA Fc fusion (dimeric) (human, UniProt Q7Z6A9 31-157)
# T10 construct: not shown: Fc part not described
# T10 sequence (looked up): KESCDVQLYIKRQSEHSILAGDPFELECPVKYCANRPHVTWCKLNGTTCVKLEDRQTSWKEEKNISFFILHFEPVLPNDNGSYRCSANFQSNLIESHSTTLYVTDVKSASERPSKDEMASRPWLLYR
# B1: 7F12 (antibody, V domains shown)
# VH: EVQLVESGGGLVKPGGSLTLSCAASGFTFSDYWMDWVRQGPGKGLEWVGNIDEDGSTTYYAPFVKGRFTISRDNAKKTLYLQMNSVKSEDTATYYCTRWGRYAFDSWGQGTLVTVSS
# VL: DIVMTQSPSSLAVSPGDKVTINCKSSQSLLSGNYNYLAWYQQKTGQAPKLLIFYASTRHTGVPDRFMGSGSGTDFSLTINSFQTEDLGDYYCQHHYSTPPTFGPGTKLEIK
# notes: Armenian hamster monoclonal tested as IgG; also called hamster anti-ICOS 7F12
# B2: 37A10 (antibody, V domains shown)
# VH: B1 VH with T19K, G40A, T57I, Y59E, A61S, A75V, K77N, Y102F, A103G
# VL: DIVMTQSPSSLAVSAGDRVTINCKSSQSLLSGSFNYLTWYQQKTGQAPKLLIFYASTRHTGVPDRFMGSGSGTDFTLTINSFQTEDLGDYYCHHHYNAPPTFGPGTKLELR
# notes: Armenian hamster monoclonal tested as IgG; also called hamster anti-ICOS 37A10
# B3: 16G10 (antibody, V domains shown)
# VH: EVQLVESGGGLVKPGGSLKLSCAASGFTFSDYWMDWVRQAPGKGLEWVGNIDHDGNIINFAPSVKGRFTISRDNAKNTLYLQMNSVKSEDTATYYCARWGHYAFDSWGQGTLVTVSS
# VL: B1 VL with P15A, G32S, N33G, A38I, M67I, S76T, N80T, T98S
# notes: Armenian hamster monoclonal tested as IgG; also called hamster anti-ICOS 16G10
# B4: 36E10 (antibody, V domains shown)
# VH: B1 VH with T19K, G40A, T57I, Y59E, A61S, A75V, K77N, T78I, Y102F
# VL: B2 VL with A15P, N35H
# notes: Armenian hamster monoclonal tested as IgG; also called hamster anti-ICOS 36E10
# Molecular target: T1, human ICOS-hFc (homodimeric, bivalent)
# Assay: BLI, bivalent binding to homodimeric ICOS-Fc
# Procedure: (§1) Cross-reactivity measurements were conducted using BLI technology with antibody panels being screened for binding to human, mouse, and cynomolgus ICOS-Fc fusions (homodimeric, bivalent forms).
Kd [nM],koff [s⁻¹],kon [M⁻¹ s⁻¹],Binder
0.0342,2.3e-05,674000,B1
< 0.001,< 1e-07,625000,B2
< 0.001,< 1e-07,626000,B3
< 0.001,< 1e-07,617000,B4

# Molecular target: T2, cynomolgus ICOS-Fc (homodimeric, …)
# Assay: BLI, bivalent binding to homodimeric ICOS-Fc
# Procedure: as §1
Kd [nM],koff [s⁻¹],kon [M⁻¹ s⁻¹],Binder
< 0.001,< 1e-07,585000,B1
< 0.001,< 1e-07,712000,B2
< 0.001,< 1e-07,647000,B3
< 0.001,< 1e-07,697000,B4

# Molecular target: T3, monovalent, heterodimeric human ICOS-Fc
# Assay: BLI (Octet RED96), IgG vs monovalent heterodimeric ICOS-Fc
# Procedure: (§2) Affinity measurements were conducted using Bio-Layer Interferometry (BLI) technology (ForteBio Octet® RED96). The monovalent affinities were generated with IgG versions of the antibodies with monovalent, heterodimeric forms of the ICOS receptor. The avid affinities were generated using full-length IgGs against homodimeric forms of the ICOS receptor.
Kd [nM],koff [s⁻¹],kon [M⁻¹ s⁻¹],Binder
13.2,0.00175,133000,B1
3.18,0.000479,151000,B2
4.37,0.000712,163000,B3
1.59,0.000228,,B4

# Molecular target: T1, human ICOS-hFc (homodimeric, bivalent)
# Assay: BLI (Octet RED96), full-length IgG vs homodimeric ICOS-Fc (avid)
# Procedure: as §2
Kd [nM],koff [s⁻¹],kon [M⁻¹ s⁻¹],Binder
0.0342,2.3e-05,674000,B1
0.0342,2.3e-05,674000,B2
< 0.001,< 1e-07,1.01e+06,B3
< 0.001,< 1e-07,626000,B4

# Molecular target: T4, mouse ICOS-hFc (homodimeric, bivalent)
# Assay: BLI
# Procedure: as §1
row,binding result,Binder
1,binds,B1
2,binds,B2
3,binds,B3
4,binds,B4

# Molecular target: T5, mouse ICOS (full length, on cells)
# Assay: flow cytometry on ICOS+ CHO cells
# Description: To assess specificity, binding to human ICOS+ CHO cells and mouse ICOS+ CHO cells was individually analyzed by flow cytometry. As a control to screen out pan-reactive antibodies, staining on CHO cells lacking ICOS receptor expression was also examined. All of the selected antibodies bound to human and mouse ICOS+ CHO cells, and not to CHO cells lacking ICOS expression.
row,binding result,Binder
1,binds,B1
2,binds,B2
3,binds,B3
4,binds,B4

# Molecular target: T6, mouse CD28 Fc fusion (dimeric)
# Assay: binding to dimeric Fc fusions of CD28 family members
# Procedure: (§3) To further assess the specificity of the anti-ICOS antibodies, the antibodies were screened for binding to additional members of the CD28 protein family (CD28, BTLA, PD-1 and CTLA-4). […] Specifically, binding to Fc fusions (of CD28, BTLA, PD-1 and CTLA-4) in dimeric forms was evaluated, and no binding was observed. For a subset of the CD28 family members, mouse or human protein was over-expressed on the surface of HEK293 and CHOK1 cells. No binding of antibody above background relative to untransduced parental cells was observed.
row,binding result,Binder
1,no binding,B1
2,no binding,B2
3,no binding,B3
4,no binding,B4

# Molecular target: T7, mouse BTLA Fc fusion (dimeric)
# Assay: as above
# Procedure: as §3
row,binding result,Binder
1,no binding,B1
2,no binding,B2
3,no binding,B3
4,no binding,B4

# Molecular target: T11, human CD28 Fc fusion (dimeric) (human, UniProt P10747 19-152)
# T11 construct: not shown: Fc part not described
# T11 sequence (P10747 19-152): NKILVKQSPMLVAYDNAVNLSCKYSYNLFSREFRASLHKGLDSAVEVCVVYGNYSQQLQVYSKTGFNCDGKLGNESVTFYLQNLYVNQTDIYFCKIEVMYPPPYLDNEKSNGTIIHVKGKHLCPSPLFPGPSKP
# Assay: as above
# Procedure: as §3
row,binding result,Binder
1,no binding,B1
2,no binding,B2
3,no binding,B3
4,no binding,B4

# Molecular target: T12, human PD-1 Fc fusion (dimeric) (human, UniProt Q15116 25-167)
# T12 construct: not shown: Fc part not described
# T12 sequence (Q15116 25-167): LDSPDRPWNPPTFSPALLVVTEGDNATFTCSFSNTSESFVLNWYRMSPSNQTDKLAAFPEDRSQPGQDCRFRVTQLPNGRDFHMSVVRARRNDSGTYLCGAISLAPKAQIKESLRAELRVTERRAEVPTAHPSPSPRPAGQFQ
# Assay: as above
# Procedure: as §3
row,binding result,Binder
1,no binding,B1
2,no binding,B2
3,no binding,B3
4,no binding,B4

# Molecular target: T8, mouse PD-1 Fc fusion (dimeric)
# Assay: as above
# Procedure: as §3
row,binding result,Binder
1,no binding,B1
2,no binding,B2
3,no binding,B3
4,no binding,B4

# Molecular target: T13, mouse CTLA-4 Fc fusion (dimeric) (mouse, UniProt P09793 36-162)
# T13 construct: not shown: Fc part not described
# Assay: as above
# Procedure: as §3
row,binding result,Binder
1,no binding,B1
2,no binding,B2
3,no binding,B3
4,no binding,B4

# Molecular target: T9, human CTLA-4 Fc fusion (dimeric)
# Assay: as above
# Procedure: as §3
row,binding result,Binder
1,no binding,B1
2,no binding,B2
3,no binding,B3
4,no binding,B4

# Molecular target: T10, human BTLA Fc fusion (dimeric)
# Assay: as above
# Procedure: as §3
row,binding result,Binder
1,no binding,B1
2,no binding,B2
3,no binding,B3
4,no binding,B4
